± gives the standard error. This sample holds only a part of the variants without activity.
B1: glmS ribozyme (parent)
chain: AUAAAAGCGCCAGAACUACAGAAAUGUAGUUGACGAGGAGGAGGUUUAUCGAAUUUUCGGCGGAUGCCUCCAAA

How the values were obtained:
Details in all cases: with glucosamine-6-phosphate
glucosamine-6-phosphate [1] = variants of: B1; test: self-cleavage kobs at 40 uM GlcN6P; higher = faster cleavage; RNA array
In short: (§1)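 Weighted Michaelis–Menten fits across concentrations supplied kcat and KM, based on kobs from one- or two-exponential decay fits to normalised per-tile medians. The data came from barcoded ribozyme variants transcribed in situ by E. coli RNA polymerase on sequenced MiSeq chips and tracked at 37 °C by a hybridised Cy3 probe. Glucosamine-6-phosphate (40 μM to 10 mM) in HEPES/KCl/Mg(OAc)2 buffer was flowed in.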

glucosamine-6-phosphate [2] = variants of: B1; test: self-cleavage kobs at 10000 uM GlcN6P; higher = faster cleavage; RNA array
In short: as §1

glucosamine-6-phosphate [3] = variants of: B1; test: self-cleavage kobs at 160 uM GlcN6P; higher = faster cleavage; RNA array
In short: as §1

glucosamine-6-phosphate [4] = variants of: B1; test: self-cleavage kobs at 2500 uM GlcN6P; higher = faster cleavage; RNA array
In short: as §1

glucosamine-6-phosphate [5] = variants of: B1; test: self-cleavage kobs at 640 uM GlcN6P; higher = faster cleavage; RNA array
In short: as §1

Row | Variant | self-cleavage kobs at 40 uM GlcN6P (glucosamine-6-phosphate [1]) | self-cleavage kobs at 10000 uM GlcN6P (glucosamine-6-phosphate [2]) | self-cleavage kobs at 160 uM GlcN6P (glucosamine-6-phosphate [3]) | self-cleavage kobs at 2500 uM GlcN6P (glucosamine-6-phosphate [4]) | self-cleavage kobs at 640 uM GlcN6P (glucosamine-6-phosphate [5])
1 | C16G G37A G40A A48G | < 1e-05 s⁻¹ | < 1e-05 s⁻¹ | – | – | –
2 | C10G G13A U47G | < 1e-05 s⁻¹ | – | – | – | –
3 | A6G A14U U65G | < 1e-05 s⁻¹ | – | – | – | –
4 | A36C A53G | < 1e-05 s⁻¹ | < 1e-05 s⁻¹ | – | – | –
5 | G7C C68A | < 1e-05 s⁻¹ | < 1e-05 s⁻¹ | < 1e-05 s⁻¹ | < 1e-05 s⁻¹ | –
6 | A12U U30G U47G A48U U49C U69C C70G | < 1e-05 s⁻¹ | < 1e-05 s⁻¹ | – | – | –
7 | A6C A14C A36C G37C G40U G66C C67G | < 1e-05 s⁻¹ | – | – | – | < 1e-05 s⁻¹
8 | G59U G62U C71U | < 1e-05 s⁻¹ | – | – | – | –
9 | G32A G62A | < 1e-05 s⁻¹ | < 1e-05 s⁻¹ | < 1e-05 s⁻¹ | – | < 1e-05 s⁻¹
10 | G9A A52U U65G | < 1e-05 s⁻¹ | – | – | – | –
11 | A12U G37C A42U A48C | < 1e-05 s⁻¹ | – | – | – | –
12 | A12C A14G A15C | 0.000144 ± 2.4e-05 s⁻¹ | – | – | 0.00354 ± 0.00082 s⁻¹ | 0.00124 ± 0.0003 s⁻¹
13 | C8G A14G A33G | < 1e-05 s⁻¹ | < 1e-05 s⁻¹ | – | < 1e-05 s⁻¹ | –
14 | G9C G62A | < 1e-05 s⁻¹ | < 1e-05 s⁻¹ | – | – | < 1e-05 s⁻¹
15 | A36U G41A | < 1e-05 s⁻¹ | < 1e-05 s⁻¹ | < 1e-05 s⁻¹ | < 1e-05 s⁻¹ | < 1e-05 s⁻¹
16 | G66C C68A | < 1e-05 s⁻¹ | – | – | 5.93e-05 ± 2.7e-05 s⁻¹ | 0.000128 ± 5.4e-05 s⁻¹
17 | C8A U45A | < 1e-05 s⁻¹ | < 1e-05 s⁻¹ | < 1e-05 s⁻¹ | < 1e-05 s⁻¹ | < 1e-05 s⁻¹
18 | U30G U49C A64C | < 1e-05 s⁻¹ | < 1e-05 s⁻¹ | < 1e-05 s⁻¹ | – | –
19 | G43A G44U | < 1e-05 s⁻¹ | < 1e-05 s⁻¹ | < 1e-05 s⁻¹ | – | < 1e-05 s⁻¹
20 | G51A U55A C58G | < 1e-05 s⁻¹ | < 1e-05 s⁻¹ | – | – | –
21 | G35C C61U G62A | < 1e-05 s⁻¹ | < 1e-05 s⁻¹ | – | – | –
22 | G63A U65G G66U | < 1e-05 s⁻¹ | < 1e-05 s⁻¹ | – | < 1e-05 s⁻¹ | –
23 | A6C A15G U45G | < 1e-05 s⁻¹ | – | < 1e-05 s⁻¹ | – | –
24 | U31G U56G | 0.000123 ± 2.1e-05 s⁻¹ | 0.00342 ± 0.00086 s⁻¹ | 0.000145 ± 4e-05 s⁻¹ | 0.00132 ± 0.00034 s⁻¹ | 0.000347 ± 8.2e-05 s⁻¹

Row | Variant | self-cleavage kobs at 40 uM GlcN6P (glucosamine-6-phosphate [1]) | self-cleavage kobs at 10000 uM GlcN6P (glucosamine-6-phosphate [2]) | self-cleavage kobs at 160 uM GlcN6P (glucosamine-6-phosphate [3]) | self-cleavage kobs at 2500 uM GlcN6P (glucosamine-6-phosphate [4]) | self-cleavage kobs at 640 uM GlcN6P (glucosamine-6-phosphate [5])
25 | G37A G38A G41A | < 1e-05 s⁻¹ | < 1e-05 s⁻¹ | – | – | –
26 | G32A U54A C61G | < 1e-05 s⁻¹ | < 1e-05 s⁻¹ | – | – | < 1e-05 s⁻¹
27 | A15G G29A U55G | 5.71e-05 ± 1.7e-05 s⁻¹ | 0.00317 ± 0.00043 s⁻¹ | – | – | –
28 | U55A C71G | 8.5e-05 ± 2.2e-05 s⁻¹ | 0.00278 ± 0.0012 s⁻¹ | 0.000248 ± 9.2e-05 s⁻¹ | 0.000736 ± 0.00023 s⁻¹ | 0.00136 ± 0.00036 s⁻¹
29 | C10G A15U A36U G38A A53G C68G C70U | 0.000148 ± 4.5e-05 s⁻¹ | – | – | – | –
30 | G41A C50U G59A | < 1e-05 s⁻¹ | < 1e-05 s⁻¹ | – | – | –
31 | U47G C68U | 4.04e-05 ± 8.8e-06 s⁻¹ | 0.0017 ± 0.00029 s⁻¹ | – | 0.0005 ± 0.00011 s⁻¹ | 0.000601 ± 0.00012 s⁻¹
32 | A6G C8G G40A | < 1e-05 s⁻¹ | < 1e-05 s⁻¹ | – | – | –
33 | C10G A14U C34A U49G | < 1e-05 s⁻¹ | – | – | – | –
34 | G13A G44U C50G C71U | < 1e-05 s⁻¹ | – | – | – | < 1e-05 s⁻¹
35 | C11A U31A A39G U55C G66U | < 1e-05 s⁻¹ | < 1e-05 s⁻¹ | < 1e-05 s⁻¹ | – | –
36 | A33G A52U | < 1e-05 s⁻¹ | < 1e-05 s⁻¹ | – | – | < 1e-05 s⁻¹
37 | G7U G51C | < 1e-05 s⁻¹ | – | – | < 1e-05 s⁻¹ | < 1e-05 s⁻¹
38 | C50G C58G | 8.56e-05 ± 1.3e-05 s⁻¹ | – | 0.000155 ± 2.6e-05 s⁻¹ | 6.82e-05 ± 1.8e-05 s⁻¹ | 0.000235 ± 5.2e-05 s⁻¹
39 | G38C U69C | < 1e-05 s⁻¹ | < 1e-05 s⁻¹ | < 1e-05 s⁻¹ | – | –
40 | A33C U54A U57C | < 1e-05 s⁻¹ | – | – | < 1e-05 s⁻¹ | –
41 | C34G U57G | < 1e-05 s⁻¹ | < 1e-05 s⁻¹ | < 1e-05 s⁻¹ | – | < 1e-05 s⁻¹
42 | G9A C10G | < 1e-05 s⁻¹ | – | < 1e-05 s⁻¹ | < 1e-05 s⁻¹ | –
43 | G41U G43C | < 1e-05 s⁻¹ | – | < 1e-05 s⁻¹ | < 1e-05 s⁻¹ | < 1e-05 s⁻¹
44 | A39C G41U | < 1e-05 s⁻¹ | – | < 1e-05 s⁻¹ | – | –
45 | G21C G29A | 6.68e-05 ± 2.4e-05 s⁻¹ | 0.00366 ± 0.00094 s⁻¹ | – | – | –
46 | C11U A42C | < 1e-05 s⁻¹ | < 1e-05 s⁻¹ | < 1e-05 s⁻¹ | < 1e-05 s⁻¹ | < 1e-05 s⁻¹
47 | G9C U55G | < 1e-05 s⁻¹ | < 1e-05 s⁻¹ | – | – | –
